B1: Kv7.2 CaM-binding site (construct of the unpublished KD not stated) (domain or fragment)
chain: not shown
notes: the construct may be that of m1
B2: Kv7.3 CaM-binding site (construct of the unpublished KD not stated) (domain or fragment)
chain: not shown

Biological target: T1, Ca2+-calmodulin (of the unpublished KD) ( (rat cDNA cloned), UniProt P0DP29 1-149)
T1 construct: also called Ca2+-CaM
Assay: not stated; unpublished ('A.A. in preparation'); affinity of the Kv7 CaM-binding site for Ca2+-CaM

Binder | Kd [nM]
B1 | ~25
B2 | ~25

From PMC3182250 (PLoS ONE, 2011)
